# Laboratory results published in IntAct's records for PubMed 35016035.
# B1: Speedy protein E4 (Homo sapiens), A6NLX3 (parent)
# chain: MASGQARPPFEEESPQPSTTVRSPEVVVDDEVPGPSAPWIDPSPQPQSLGLKRKSEWSDESEEELEEELELERAPEPEDTWVVETLCGLKMKLKRKRASSVLPEHHEAFNRLLGDPVVQKFLAWDKDLRVSDKYLLAMVIAYFSRAGLFSWQYQRIHFFLALYLASDMEEDNQAPKQDIFSFLYGKNYSQRPLFHKLRYQLLCSMRWRTWVSPEEMEEIQAYDPEHWVWARDRTLIS
# B2: Protein FAM90A1 (Homo sapiens), Q86YD7 (parent)
# chain: MMARRDPKPGAKRLVRAQTLQKQRRAPVGPRAPPPDEEDPRLKCKNCEAFGHTARSTRCPMKCWKAALVPPNFGEKEGKENLKPWKPQVEANPGPLNKDKGEKEERPRPQDPQRKALLHIFSRKPPEKPLPNQKGSTESSDYLRVASGPMPVHTTSKRPRVDPVLSDRSATEMSDRGSVLASLSPLRKASLSSSSSLGPKERQTGAAADIPQTAVRHQGPEPLLVVKPTHSSPAGGCREVPQAASKTHGLLQAVSPQAQDKRPAVTSQPCPPAATHSLGLGSNLSFGPGAKRSAPAPIQACLNFPKKPRLGPFQIPESAIQGGELGAPENLQPPPAATELGPRTSPQTGTRTPAQVLSGDRQPPHSRPCLPTAQACTMSHHPAASHDGAQPLRVLFRRLENGRWSSSLLTAPSFHSPEKPGAFLAQSPHVSEKSEGPCVRVPPSVLYEDLQVPSSSEDSDSDLE
# Variants of: B1
# Settings: with brd4_human BRD4, O60885
row,Variant,effect of a mutation on the interaction
1,MASGQARPPFEEESPQPSTTVRSPEVVVDDEVPGPSAPWIDPSPQPQSLGLKRKSEWSDESEEELEEELELERAPEPEDTWVDETDCGLKDKDKRKRASSVLPEHHEAFNRLLGDPVVQKFLAWDKDLRVSDKYLLAMVIAYFSRAGLFSWQYQRIHFFLALYLASDMEEDNQAPKQDIFSFLYGKNYSQRPLFHKLRYQLLCSMRWRTWVSPEEMEEIQAYDPEHWVWARDRTLIS [V83D;L86D;M91D;L93D],disrupting interaction strength

# Variants of: B2
# Settings: with brd4_human BRD4, O60885
row,Variant,effect of a mutation on the interaction
1,MMARRDPKPGAKRLVRAQTLQKQRRAPVGPRAPPPDEEDPRLKCKNCEAFGHTARSTRCPMKCWKAALVPPNFGEKEGKENLKPWKPQVEANPGPLNKDKGEKEERPRPQDPQRKALLHIFSRKPPEKPLPNQKGSTESSDYLRVASGPMPVHTTSKRPRVDPVLSDRSATEMSDRGSVLASLSPLRKASLSSSSSLGPKERQTGAAADIPQTAVRHQGPEPLLVVKPTHSSPAGGCREVPQAASKTHGLLQAVSPQAQDKRPAVTSQPCPPAATHSLGLGSNLSFGPGAKRSAPAPIQACLNFPKKPRLGPFQIPESAIQGGELGAPENLQPPPAATELGPRTSPQTGTRTPAQVLSGDRQPPHSRPCLPTAQACTMSHHPAASHDGAQPLRDLDRRLENGRDSDSLLTAPSFHSPEKPGAFLAQSPHVSEKSEGPCVRVPPSVLYEDLQVPSSSEDSDSDLE [V394D;F396D;W404D;S406D],disrupting interaction strength
